Experimental data as given in patent US20240398911A1.

What was measured:
[1] = target: SARS-CoV2 RBD-8h (Delta) (SARS-CoV-2 (Delta)) (UniProt P0DTC2); test: BLI, IgG protein immobilized, monomeric RBD-8h analyte
[2] = target: SARS-CoV2 RBD-8h (Gamma) (SARS-CoV-2 (Gamma)) (UniProt P0DTC2); test: as above

Question: Which Kd [1] does the source give for VIR-7831 (sotrovimab) (antibody) here?
Answer: < 0.1 nM

Question: What about the koff [1] of the same substance?
Answer: < 1e-07 s⁻¹

Question: And the kon [1]?
Answer: 100000 M⁻¹ s⁻¹

Question: And the kon [2]?
Answer: 97000 M⁻¹ s⁻¹
